According to US12103979B2, “N-acetylated and non-acetylated dipeptides containing arginine to reduce the viscosity of viscous compositions of therapeutic polypeptides” (AMGEN INC., priority 2017, dated 2024):

B1: CGRP: therapeutic antibody; IgG2, Lambda; LC SEQ ID NO 29, HC SEQ ID NO 30 (antibody, listed as Homo sapiens)
heavy: MEFGLSWVFLVALLRGVQCQVQLVESGGGVVQPGRSLRLSCAASGFTFSSFGMHWVRQAPGKGLEWVAVISFDGSIKYSVDSVKGRFTISRDNSKNTLFLQMNSLRAEDTAVYYCARDRLNYYDSSGYYHYKYYGMAVWGQGTTVTVSSASTKGPSVFPLAPCSRSTSESTAALGCLVKDYFPEPVTVSWNSGALTSGVHTFPAVLQSSGLYSLSSVVTVPSSNFGTQTYTCNVDHKPSNTKVDKTVERKCCVECPPCPAPPVAGPSVFLFPPKPKDTLMISRTPEVTCVVVDVSHEDPEVQFNWYVDGVEVHNAKTKPREEQFNSTFRVVSVLTVVHQDWLNGKEYKCKVSNKGLPAPIEKTISKTKGQPREPQVYTLPPSREEMTKNQVSLTCLVKGFYPSDIAVEWESNGQPENNYKTTPPMLDSDGSFFLYSKLTVDKSRWQQGNVFSCSVMHEALHNHYTQKSLSLSPGK
light: MTCSPLLLTLLIHCTGSWAQSVLTQPPSVSAAPGQKVTISCSGSSSNIGNNYVSWYQQLPGTAPKLLIYDNNKRPSGIPDRFSGSKSGTSTTLGITGLQTGDEADYYCGTWDSRLSAVVFGGGTKLTVLGQPKANPTVTLFPPSSEELQANKATLVCLISDFYPGAVTVAWKADGSPVKAGVETTKPSKQSNNKYAASSYLSLTPEQWKSHRSYSCQVTHEGSTVEKTVAPTECS
B2: Sclerostin (2B8): therapeutic antibody; IgG2, Lambda; LC SEQ ID NO 79, HC SEQ ID NO 80 (antibody, listed as Homo sapiens)
heavy: MEFGLSWVFLVALLRGVQCQVQLVESGGGVVQPGRSLRLSCAASGFTFSSYVMHWVRQAPGKGLEWVAVIWYDGSNKYYADSVKGRFTISRDNSKNTLYLQMNSLRAEDTAVYYCAREGYDYGEDYYYYGMDVWGQGTTVTVSSASTKGPSVFPLAPCSRSTSESTAALGCLVKDYFPEPVTVSWNSGALTSGVHTFPAVLQSSGLYSLSSVVTVPSSNFGTQTYTCNVDHKPSNTKVDKTVERKCCVECPPCPAPPVAGPSVFLFPPKPKDTLMISRTPEVTCVVVDVSHEDPEVQFNWYVDGVEVHNAKTKPREEQFNSTFRVVSVLTVVHQDWLNGKEYKCKVSNKGLPAPIEKTISKTKGQPREPQVYTLPPSREEMTKNQVSLTCLVKGFYPSDIAVEWESNGQPENNYKTTPPMLDSDGSFFLYSKLTVDKSRWQQGNVFSCSVMHEALHNHYTQKSLSLSPGK
light: MAWAPLLLTLLAHCTGSWANFMLTQPHSVSESPGKTVAISCTRNSGSIASNSVQWYQQRPGSSPTTVIFEDNQRPSGVPDRFSGSIDSSSNSASLTISGLKTEDEADYYCQSYDSNNWVFGGGTKLTVLGQPKANPTVTLFPPSSEELQANKATLVCLISDFYPGAVTVAWKADGSPVKAGVETTKPSKQSNNKYAASSYLSLTPEQWKSHRSYSCQVTHEGSTVEKTVAPTECS
B3: Dkk1 (11H10): therapeutic antibody; IgG2, Kappa; LC SEQ ID NO 71, HC SEQ ID NO 72 (antibody, listed as Homo sapiens)
heavy: MDIRLSLAFLVLFIKGVQCEVQLVESGGGLVQPANSLKLSCAASGFTFSDYAMAWVRQSPKKGLEWVATIIYDGSSTYYRDSVKGRFTISRDNAKSTLYLQMDSLRSEDTATYYCATGLGIATDYFDYWGQGVLVTVSSAETTAPSVYPLAPGTALKSNSMVTLGCLVKGYFPEPVTVTWNSGALSSGVHTFPAVLQSGLYTLTSSVTVPSSTWPSQTVTCNVAHPASSTKVDKKIVPRNCGGDCKPCICTGSEVSSVFIFPPKPKDVLTITLTPKVTCVVVDISQDDPEVHFSWFVDDVEVHTAQTRPPEEQFNSTFRSVSELPILHQDWLNGRTFRCKVTSAAFPSPIEKTISKPEGRTQVPHVYTMSPTKEEMTQNEVSITCMVKGFYPPDIYVEWQMNGQPQENYKNTPPTMDTDGSYFLYSKLNVKKEKWQQGNTFTCSVLHEGLHNHHTEKSLSHSPGK
light: MGVPTHLLGLLLLWITHAICDIRMTQSPASLSASLGETVNIECLASEDIYSDLAWYQQKPGKSPQLLIYNANSLQNGVPSRFSGSGSGTQYSLKINSLQSEDVATYFCQQYNNYPPTFGGGTKLELKRADAAPTVSIFPPSTEQLATGGASVVCLMNNFYPRDISVKWKIDGTERRDGVLDSVTDQDSKDSTYSMSSTLSLTKADYESHNLYTCEVVHKTSSSPVVKSFNRNEC
B4: TSLP: therapeutic antibody; IgG2, Lambda; LC SEQ ID NO 69, HC SEQ ID NO 70 (antibody, listed as Homo sapiens)
heavy: MGSTAILGLLLAVLQGGRAQMQLVESGGGVVQPGRSLRLSCAASGFTFRTYGMHWVRQAPGKGLEWVAVIWYDGSNKHYADSVKGRFTITRDNSKNTLNLQMNSLRAEDTAVYYCARAPQWELVHEAFDIWGQGTMVTVSSASTKGPSVFPLAPCSRSTSESTAALGCLVKDYFPEPVTVSWNSGALTSGVHTFPAVLQSSGLYSLSSVVTVPSSNFGTQTYTCNVDHKPSNTKVDKTVERKCCVECPPCPAPPVAGPSVFLFPPKPKDTLMISRTPEVTCVVVDVSHEDPEVQFNWYVDGVEVHNAKTKPREEQFNSTFRVVSVLTVVHQDWLNGKEYKCKVSNKGLPAPIEKTISKTKGQPREPQVYTLPPSREEMTKNQVSLTCLVKGFYPSDIAVEWESNGQPENNYKTTPPMLDSDGSFFLYSKLTVDKSRWQQGNVFSCSVMHEALHNHYTQKSLSLSPGK
light: MGSTAILGLLLAVLQGGRASYVLTQPPSVSVAPGQTARITCGGNNLGSKSVHWYQQKPGQAPVLVVYDDSDRPSWIPERFSGSNSGNTATLTISRGEAGDEADYYCQVWDSSSDHVVFGGGTKLTVLGQPKAAPSVTLFPPSSEELQANKATLVCLISDFYPGAVTVAWKADSSPVKAGVETTTPSKQSNNKYAASSYLSLTPEQWKSHRSYSCQVTHEGSTVEKTVAPTECS
B5: Hepcidin: therapeutic antibody; IgG2, Lambda; LC SEQ ID NO 31, HC SEQ ID NO 32 (antibody, listed as Homo sapiens)
heavy: MEFGLSWVFLVALLRGVQCQVQLVESGGGVVQPGRSLRLSCAASGFTFSSYGMHWVRQAPGKGLEWVAVIWYAESNKYYADSVKGRFTISRDNSKNTLYLQMNSLRAEDTAVYYCARAQEGIAPDAFDIWGQGTMVTVSSASTKGPSVFPLAPCSRSTSESTAALGCLVKDYFPEPVTVSWNSGALTSGVHTFPAVLQSSGLYSLSSVVTVPSSNFGTQTYTCNVDHKPSNTKVDKTVERKCCVECPPCPAPPVAGPSVFLFPPKPKDTLMISRTPEVTCVVVDVSHEDPEVQFNWYVDGVEVHNAKTKPREEQFNSTFRVVSVLTVVHQDWLNGKEYKCKVSNKGLPAPIEKTISKTKGQPREPQVYTLPPSREEMTKNQVSLTCLVKGFYPSDIAVEWESNGQPENNYKTTPPMLDSDGSFFLYSKLTVDKSRWQQGNVFSCSVMHEALHNHYTQKSLSLSPGK
light: MDMRVPAQLLGLLLLWLRGARCYELTQPPSVSVSPGQTATITCSGDKLGERYASWYQQRPGQSPVLVIYQDIKRPSGIPERFSGSNSGNTATLTISGTQAMDEADYFCQAWYSSTNVLFGGGTKLTVLGQPKAAPSVTLFPPSSEELQANKATLVCLISDFYPGAVTVAWKADSSPVKAGVETTTPSKQSNNKYAASSYLSLTPEQWKSHRSYSCQVTHEGSTVEKTVAPTECS
B6: PCSK9: therapeutic antibody; IgG2, Lambda; LC SEQ ID NO 73, HC SEQ ID NO 74 (antibody, listed as Homo sapiens)
heavy: MDWTWRILFLVAAATGVHSEVQLVQSGAEVKKPGASVKVSCKASGYTLTSYGISWVRQAPGQGLEWMGWVSFYNGNTNYAQKLQGRGTMTTDPSTSTAYMELRSLRSDDTAVYYCARGYGMDVWGQGTTVTVSSASTKGPSVFPLAPCSRSTSESTAALGCLVKDYFPEPVTVSWNSGALTSGVHTFPAVLQSSGLYSLSSVVTVPSSNFGTQTYTCNVDHKPSNTKVDKTVERKCCVECPPCPAPPVAGPSVFLFPPKPKDTLMISRTPEVTCVVVDVSHEDPEVQFNWYVDGVEVHNAKTKPREEQFNSTFRVVSVLTVVHQDWLNGKEYKCKVSNKGLPAPIEKTISKTKGQPREPQVYTLPPSREEMTKNQVSLTCLVKGFYPSDIAVEWESNGQPENNYKTTPPMLDSDGSFFLYSKLTVDKSRWQQGNVFSCSVMHEALHNHYTQKSLSLSPGK
light: MDMRVPAQLLGLLLLWLRGARCESALTQPASVSGSPGQSITISCTGTSSDVGGYNSVSWYQQHPGKAPKLMIYEVSNRPSGVSNRFSGSKSGNTASLTISGLQAEDEADYYCNSYTSTSMVFGGGTKLTVLGQPKAAPSVTLFPPSSEELQANKATLVCLISDFYPGAVTVAWKADSSPVKAGVETTTPSKQSNNKYAASSYLSLTPEQWKSHRSYSCQVTHEGSTVEKTVAPTECS

assay: Viscosity of therapeutic antibodies of Table 1 at exemplary concentration; type: physicochemical; settings: at the Conc. (133.9-162.5 mg/ml)

In order of rising “Viscosity (cP)” value:
1. B1  9.6 cP
2. B5  9.9 cP
3. B4  21.4 cP
4. B3  22.5 cP
5. B2  30.0 cP

assay: pI of therapeutic antibodies of Table 1; type: physicochemical; settings: not given

In order of falling pl:
1. B1  8.8
2. B3  8.2
3. B6  8.1
4. B5  7.3
5. B4  7.2
6. B2  6.7
